Reference: patent US20200339648A1 (University of Washington, published 2020)

B1: mouse interleukin-2 (mIL-2) (ligand, UniProt P04351 21-169, looked up)
chain: APTSSSTSSSTAEAQQQQQQQQQQQQHLEQLLMDLQELLSRMENYRNLKLPRMLTFKFYLPKQATELKDLQCLEDELGPLRHVLDLTQSKSFQLEDAENFISNIRVTVVKLKGSDNTFECQFDDESATVVDFLRRWIAFCQSIISTSPQ
notes: range 1-149; Baculovirus expression for SPR; also called MmIL-2; mouse IL-2
B2: G2_neo2_40_1F_dsn36 (designed binder)
chain: PKKKIQLLAEHALLDALMILNIVKTNSQNAEEKLEDYASNVEVILEEIARLMESGDQKDEAEKAKRMKEWMKRIKTTASEDEQEEMANRIITLLQSWIFS
notes: E. coli, N-terminal 6xHis tag and thrombin site
B3: G1_neo2_40_1F (designed binder)
chain: STKKTQLLAEHALLDALMMLNLLPEPNEKLNRIITTMQSWIFTGKIDGDGAQELAKEVEELEQEHEKRGIDVEDYASNLKVILLELA
notes: also called G1_ne02_40_1F

Columns and labels:
[1] = molecular target: T1, mouse IL-2Rβγc on murine cells (CTLL-2 T cells, primary CD4+ T cells) (mouse, UniProt P16297 27-539; P34902 23-369); experiment: cell-based or functional assay
T1 sequence (looked up) 1: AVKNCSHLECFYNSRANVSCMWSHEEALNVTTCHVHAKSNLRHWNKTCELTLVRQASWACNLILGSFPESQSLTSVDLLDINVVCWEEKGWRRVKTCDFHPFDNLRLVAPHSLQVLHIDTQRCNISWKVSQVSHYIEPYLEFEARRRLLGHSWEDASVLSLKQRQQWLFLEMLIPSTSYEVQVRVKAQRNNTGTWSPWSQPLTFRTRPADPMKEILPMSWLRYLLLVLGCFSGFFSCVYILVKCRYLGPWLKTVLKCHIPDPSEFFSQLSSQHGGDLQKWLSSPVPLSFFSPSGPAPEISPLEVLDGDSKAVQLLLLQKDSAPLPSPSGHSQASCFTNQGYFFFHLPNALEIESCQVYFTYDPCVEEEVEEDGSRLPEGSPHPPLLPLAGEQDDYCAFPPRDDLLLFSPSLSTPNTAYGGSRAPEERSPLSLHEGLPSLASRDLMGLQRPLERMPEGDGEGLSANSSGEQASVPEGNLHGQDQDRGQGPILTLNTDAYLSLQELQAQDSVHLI
T1 sequence (looked up) 2: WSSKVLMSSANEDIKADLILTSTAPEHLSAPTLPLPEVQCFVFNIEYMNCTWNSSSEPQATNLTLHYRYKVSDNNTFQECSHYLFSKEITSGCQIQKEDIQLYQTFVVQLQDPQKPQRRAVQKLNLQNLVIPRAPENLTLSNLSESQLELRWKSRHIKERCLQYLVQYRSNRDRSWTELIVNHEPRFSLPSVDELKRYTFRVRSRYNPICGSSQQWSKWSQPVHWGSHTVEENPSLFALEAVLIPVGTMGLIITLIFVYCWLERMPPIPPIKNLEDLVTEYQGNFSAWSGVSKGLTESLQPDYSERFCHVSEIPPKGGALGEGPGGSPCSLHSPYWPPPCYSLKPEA

[2] = molecular target: T2, human IL-2Rβγc on human cells (YT-1 NK cells) (human, UniProt P14784 27-551; P31785 23-369); experiment: cell-based or functional assay
T2 sequence (looked up) 1: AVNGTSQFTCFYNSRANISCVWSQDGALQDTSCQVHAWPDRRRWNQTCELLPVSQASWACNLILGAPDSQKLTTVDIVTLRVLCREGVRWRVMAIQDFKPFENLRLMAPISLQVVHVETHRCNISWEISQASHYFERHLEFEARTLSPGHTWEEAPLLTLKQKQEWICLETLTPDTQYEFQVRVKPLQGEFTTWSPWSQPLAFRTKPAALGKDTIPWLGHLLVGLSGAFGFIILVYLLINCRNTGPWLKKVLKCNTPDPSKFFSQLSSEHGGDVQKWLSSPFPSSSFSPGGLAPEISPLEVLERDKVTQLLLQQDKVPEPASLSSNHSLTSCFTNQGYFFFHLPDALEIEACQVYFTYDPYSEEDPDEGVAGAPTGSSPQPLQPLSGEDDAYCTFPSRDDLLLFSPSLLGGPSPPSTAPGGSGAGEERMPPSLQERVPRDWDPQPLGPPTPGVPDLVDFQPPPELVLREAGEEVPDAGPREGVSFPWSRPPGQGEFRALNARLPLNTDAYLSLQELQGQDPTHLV
T2 sequence (looked up) 2: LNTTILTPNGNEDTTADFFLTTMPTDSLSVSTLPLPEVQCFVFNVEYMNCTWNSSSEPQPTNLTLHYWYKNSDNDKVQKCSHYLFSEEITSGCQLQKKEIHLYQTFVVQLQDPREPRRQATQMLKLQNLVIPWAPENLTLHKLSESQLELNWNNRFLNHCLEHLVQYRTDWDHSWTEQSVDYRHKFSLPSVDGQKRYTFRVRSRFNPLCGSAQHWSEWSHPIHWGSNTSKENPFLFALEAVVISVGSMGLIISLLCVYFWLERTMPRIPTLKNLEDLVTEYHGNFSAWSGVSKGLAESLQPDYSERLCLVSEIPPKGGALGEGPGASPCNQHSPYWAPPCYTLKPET

[3] = molecular target: T3, human IL-2 receptor β subunit (hIL-2Rβ) (human, UniProt P14784 27-240, biotin on the C-terminal biotin acceptor peptide); experiment: SPR, equilibrium titration; biotinylated IL-2Rβ on streptavidin chip
T3 construct: Biotinylated and immobilised on streptavidin; also called HsIL-2Rβ; human IL-2Rβ
T3 sequence: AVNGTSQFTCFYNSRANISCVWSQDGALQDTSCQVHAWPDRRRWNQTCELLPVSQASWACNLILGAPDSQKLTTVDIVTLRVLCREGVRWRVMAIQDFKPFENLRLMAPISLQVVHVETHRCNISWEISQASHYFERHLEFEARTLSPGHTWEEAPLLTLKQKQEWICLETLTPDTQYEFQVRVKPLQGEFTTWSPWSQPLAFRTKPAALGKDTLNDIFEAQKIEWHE

[4] = molecular target: T4, mouse IL-2 receptor β subunit (mIL-2Rβ) (mouse, UniProt P16297 27-240, biotin on the C-terminal biotin acceptor peptide); experiment: as above
T4 construct: extracellular domain; Biotinylated form for SPR; also called MmIL-2Rβ; murine IL-2Rβ
T4 sequence: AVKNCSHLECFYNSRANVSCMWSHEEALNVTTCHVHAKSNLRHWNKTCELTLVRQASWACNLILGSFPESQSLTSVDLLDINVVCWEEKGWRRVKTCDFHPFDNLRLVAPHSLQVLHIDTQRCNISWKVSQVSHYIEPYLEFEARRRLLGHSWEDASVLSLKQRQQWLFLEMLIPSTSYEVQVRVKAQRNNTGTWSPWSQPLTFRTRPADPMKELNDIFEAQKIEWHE

| Binder | EC50 (CD25+) pSTAT5, murine T (CTLL-2, CD25+) cells [1] | EC50 (CD25-) pSTAT5p, human NK (YT, CD25-) cells [2] | Kd [3] [nM] | Kd [4] [nM] |
| --- | --- | --- | --- | --- |
| B1 | 3 pM | 39 nM | 4950 | 1500 |
| B2 | 1.36 nM | 0.12 nM | 27.6 | 2430 |
| B3 | 0.2 nM | 90 pM | 2.6 | 486 |
